Patent US20070292390A1

Columns and labels:
[1] = target: tethered gp140 89.6 (HIV-1 isolate 89.6) (UniProt Q73372); experiment: competition ELISA; competitor (coated): Fab m43; biotinylated gp140 89.6; competing antibody at 12 µg/ml
[2] = target: tethered gp140 89.6 (HIV-1 isolate 89.6) (UniProt Q73372); experiment: competition ELISA; competitor (coated): Fab m44; biotinylated gp140 89.6; competing antibody at 12 µg/ml
[3] = target: tethered gp140 89.6 (HIV-1 isolate 89.6) (UniProt Q73372); experiment: competition ELISA; competitor (coated): Fab m45; biotinylated gp140 89.6; competing antibody at 12 µg/ml
[4] = target: tethered gp140 89.6 (HIV-1 isolate 89.6) (UniProt Q73372); experiment: competition ELISA; competitor (coated): Fab m47; biotinylated gp140 89.6; competing antibody at 12 µg/ml
[5] = target: tethered gp140 89.6 (HIV-1 isolate 89.6) (UniProt Q73372); experiment: competition ELISA; competitor (coated): Fab m48; biotinylated gp140 89.6; competing antibody at 12 µg/ml

| Substance | Inhibition, % [1] [%] | Inhibition, % [2] [%] | Inhibition, % [3] [%] | Inhibition, % [4] [%] | Inhibition, % [5] [%] |
| --- | --- | --- | --- | --- | --- |
| Fab Z13 | 72 | 57 | 0 | 41 | 87 |
| IgG 2F5 (antibody) | 51 | 38 | 0 | 31 | 74 |
| IgG 4E10 (antibody) | 29 | 42 | 6 | 10 | 63 |
